Data from paper PMC9515186.

Target: transferrin receptor 1 (mouse (endogenous in 4T1)) (UniProt Q62351)
Chain of UniProt Q62351 (Q62351 whole entry): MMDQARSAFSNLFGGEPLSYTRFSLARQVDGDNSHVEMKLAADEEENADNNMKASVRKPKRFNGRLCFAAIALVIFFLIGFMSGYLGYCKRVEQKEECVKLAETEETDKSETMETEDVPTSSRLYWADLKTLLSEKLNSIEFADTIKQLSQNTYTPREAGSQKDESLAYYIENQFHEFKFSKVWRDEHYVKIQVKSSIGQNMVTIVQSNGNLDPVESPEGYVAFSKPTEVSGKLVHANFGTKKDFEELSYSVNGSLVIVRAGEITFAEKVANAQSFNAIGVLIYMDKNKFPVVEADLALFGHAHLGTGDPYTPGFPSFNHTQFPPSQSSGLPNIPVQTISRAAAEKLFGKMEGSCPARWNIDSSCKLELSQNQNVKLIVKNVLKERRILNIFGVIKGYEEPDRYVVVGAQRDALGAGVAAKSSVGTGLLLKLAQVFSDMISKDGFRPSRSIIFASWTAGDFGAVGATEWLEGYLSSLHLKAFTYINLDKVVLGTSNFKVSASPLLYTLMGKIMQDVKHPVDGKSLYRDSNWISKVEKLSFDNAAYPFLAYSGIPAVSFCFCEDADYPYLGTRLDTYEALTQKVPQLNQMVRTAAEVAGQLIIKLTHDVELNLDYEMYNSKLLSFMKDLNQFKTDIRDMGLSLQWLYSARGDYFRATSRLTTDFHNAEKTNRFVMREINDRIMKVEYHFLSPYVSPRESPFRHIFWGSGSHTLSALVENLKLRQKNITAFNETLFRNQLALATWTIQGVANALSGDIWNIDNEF

- decrease in FITC fluorescence accumulation (uptake, flow cytometry) in BSA-Man-Ft-FITC@Lap-treated 4T1 cells under pH 6.5 after pre-treatment with TfR1 antibody: 67%
- mean fluorescence intensity of FITC in 4T1 cells (CLSM) treated with BSA-Man@Mn2+-Ft-FITC@Lap, pH 6.5 group against pH 7.4 group: 3 fold
Substance: ferritin (FITC-labelled, β-lapachone-loaded ferritin units, Ft-FITC@Lap) (from UniProt Q8MIP0 1-182; P02791 1-175) (natural protein)
